Patent US20260167721A1 (ABLEXIS, published 2026)

How the values were obtained:
[1] = biological target: T1, recombinant human CD3 epsilon/delta heterodimer (human, UniProt P07766 23-126; P04234 22-105); assay: Octet BLI, mAb on FAB2G sensor, hCD3 E/D 200-50 nM; R^2 0.98;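 note: antibodies purified from hybridoma supernatants, measured by Octet binding to recombinant human CD3 protein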
T1 construct: Recombinant protein in solution (200-50 nM) in the Octet assay; also called hCD3 E/D; human CD3E/D

[2] = biological target: T2, recombinant human CD3 epsilon/gamma heterodimer (human, UniProt P07766 23-126; P09693 23-116); assay: Octet BLI, mAb on FAB2G sensor, hCD3 E/G 200-50 nM; R^2 0.99
T2 construct: Recombinant protein in solution (200-50 nM) in the Octet assay; also called hCD3 E/G
T2 sequence (P07766 23-126, chain 1 of 2): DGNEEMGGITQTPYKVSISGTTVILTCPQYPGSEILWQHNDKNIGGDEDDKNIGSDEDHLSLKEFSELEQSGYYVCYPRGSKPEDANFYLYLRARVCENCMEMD
T2 sequence (P09693 23-116, chain 2 of 2): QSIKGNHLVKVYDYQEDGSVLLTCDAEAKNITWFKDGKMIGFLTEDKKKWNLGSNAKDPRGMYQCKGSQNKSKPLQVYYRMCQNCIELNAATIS

[3] = biological target: T3, human CD3 (TCR/CD3 complex on the cell surface) (human, UniProt P07766 23-207; P04234 22-171; P09693 23-182); assay: flow cytometry, Pan-T cells, 1 ug/mL
T3 construct: whole, on cells; Native CD3 on human Pan-T cells or Jurkat wild-type cells; also called CD3 on Pan-T cells; CD3 on Jurkat WT cells
T3 sequence (P07766 23-207, chain 1 of 3): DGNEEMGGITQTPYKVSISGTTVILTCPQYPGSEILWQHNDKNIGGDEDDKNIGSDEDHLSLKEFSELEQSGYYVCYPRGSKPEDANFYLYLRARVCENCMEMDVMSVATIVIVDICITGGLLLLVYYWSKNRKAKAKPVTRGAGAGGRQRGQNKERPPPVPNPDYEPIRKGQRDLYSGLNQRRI
T3 sequence (P04234 22-171, chain 2 of 3): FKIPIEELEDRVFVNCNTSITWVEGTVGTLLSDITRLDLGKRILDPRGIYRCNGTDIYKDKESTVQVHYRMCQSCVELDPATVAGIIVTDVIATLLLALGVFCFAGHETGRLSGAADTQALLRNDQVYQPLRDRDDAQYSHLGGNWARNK
T3 sequence (P09693 23-182, chain 3 of 3): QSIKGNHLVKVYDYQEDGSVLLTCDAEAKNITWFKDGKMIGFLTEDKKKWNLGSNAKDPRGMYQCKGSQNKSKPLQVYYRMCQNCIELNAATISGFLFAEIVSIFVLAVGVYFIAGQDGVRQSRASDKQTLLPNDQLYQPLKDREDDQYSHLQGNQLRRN

[4] = biological target: T3, human CD3 (TCR/CD3 complex on the cell …); assay: flow cytometry, Pan-T cells, 10 ug/mL
[5] = biological target: T3, human CD3 (TCR/CD3 complex on the cell …); assay: flow cytometry, Jurkat WT cells, 1 ug/mL
[6] = biological target: T3, human CD3 (TCR/CD3 complex on the cell …); assay: flow cytometry, Jurkat WT cells, 10 ug/mL
[7] = biological target: T3, human CD3 (TCR/CD3 complex on the cell …); assay: flow cytometry, Jurkat WT gMFI over Jurkat KO gMFI, 1 ug/mL
[8] = biological target: T3, human CD3 (TCR/CD3 complex on the cell …); assay: flow cytometry, Jurkat WT gMFI over Jurkat KO gMFI, 10 ug/mL
[9] = biological target: T1, recombinant human CD3 epsilon/delta …; assay: Octet BLI, mAb on FAB2G sensor, hCD3 E/D 200-50 nM; R^2 1.00
[10] = biological target: T2, recombinant human CD3 epsilon/gamma …; assay: Octet BLI, mAb on FAB2G sensor, hCD3 E/G 200-50 nM; R^2 0.98
[11] = biological target: T1, recombinant human CD3 epsilon/delta …; assay: Octet BLI, mAb on FAB2G sensor, hCD3 E/D 200-50 nM; R^2 0.99

T1 sequence (P07766 23-126, stated change not applied, chain 1 of 2): as the sequence (P07766 23-126, chain 1 of 2) above
T1 sequence (P04234 22-105, stated change not applied, chain 2 of 2): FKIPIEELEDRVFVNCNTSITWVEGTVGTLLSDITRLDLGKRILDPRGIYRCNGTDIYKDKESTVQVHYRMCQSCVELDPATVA

| Binder | Kd [2] | Response [2] | koff [2] | kon [2] | Kd [10] | Response [10] | koff [10] | kon [10] | Kd [11] | Response [11] | koff [11] | kon [11] | further results |
| --- | --- | --- | --- | --- | --- | --- | --- | --- | --- | --- | --- | --- | --- |
| ABL-CD3-57 (antibody, V domains shown, Chimeric hybridoma mAb: human V, CH1, upper hinge; mouse middle hinge, CH2, CH3) VH: EVQLVESGGGLVKPGGSLRLSCAASGFTFSSYTMNWVRQAPGKGLEWVSSISTSSRYIYYTDSVKGRFTISRDDAKNSLYLQMNSLRAEDTAVYYCTRNWGYDVFDIWGQGTMVIVSS VL: QPVLTQPSSHSASSGASVRLTCMLSSGFSVGDFWIRWYQQKPGNPPRYLLYYHSDSNKGQGSGVPSRFSGSNDASANAGILRISGLQPEDEADYYCGTWHSNSKTQVFGGGTKLTVL | 3.97 nM | 0.54 | 0.00026 s⁻¹ | 65400 M⁻¹ s⁻¹ | – | – | – | – | – | – | – | – | Kd [1]: 4.29 nM; Response [1]: 0.49; koff [1]: 0.000277 s⁻¹; kon [1]: 64700 M⁻¹ s⁻¹ |
| CD3 × CD33-BspAb69 (bispecific antibody) chain 1: EVQLVESGGGLVKPGGSLRLSCAASGFTFSYYSMNWVRQAPGKCLEWVSSISRSTTYIYYADSVKGRFTISRDNAKNSLYLQMNSLRAEDTAVYYCARDGKGAIFLDYWGQGTLVTVSSGGGGSGGGGSGGGGSGGGGSSYELTQPPSVSVSPGQTARITCSGDALPKKYAYWYQQKSGQAPVLVIYEDSKRPSGIPERFSGSSSGTMATLTISGAQVEDEADYYCYSTDSSGNHRVFGCGTKLTVLDKTHTCPPCPAPEFEGGPSVFLFPPKPKDTLMISRTPEVTCVVVDVSHEDPEVKFNWYVDGVEVHNAKTKPREEQYNSTYRVVSVLTVLHQDWLNGKEYKCKVSNKALPASIEKTISKAKGQPREPQVYTLPPCREEMTKNQVSLWCLVKGFYPSDIAVEWESNGQPENNYKTTPPVLDSDGSFFLYSKLTVDKSRWQQGNVFSCSVMHEALHNHYTQKSLSLSPGK chain 2: EVQLVQSGAEVKKPGSSVKVSCKASGYTITDSNIHWVRQAPGQSLEWIGYIYPYNGGTDYNQKFKNRATLTVDNPTNTAYMELSSLRSEDTAFYYCVNGNPWLAYWGQGTLVTVSSASTKGPSVFPLAPSSKSTSGGTAALGCLVKDYFPEPVTVSWNSGALTSGVHTFPAVLQSSGLYSLSSVVTVPSSSLGTQTYICNVNHKPSNTKVDKRVEPKSCDKTHTCPPCPAPEFEGGPSVFLFPPKPKDTLMISRTPEVTCVVVDVSHEDPEVKFNWYVDGVEVHNAKTKPREEQYNSTYRVVSVLTVLHQDWLNGKEYKCKVSNKALPASIEKTISKAKGQPREPQVCTLPPSREEMTKNQVSLSCAVKGFYPSDIAVEWESNGQPENNYKTTPPVLDSDGSFFLVSKLTVDKSRWQQGNVFSCSVMHEALHNRFTQKSLSLSPGK chain 3: DIQLTQSPSTLSASVGDRVTITCRASESLDNYGIRFLTWFQQKPGKAPKLLMYAASNQGSGVPSRFSGSGSGTEFTLTISSLQPDDFATYYCQQTKEVPWSFGQGTKVEVKRTVAAPSVFIFPPSDEQLKSGTASVVCLLNNFYPREAKVQWKVDNALQSGNSQESVTEQDSKDSTYSLSSTLTLSKADYEKHKVYACEVTHQGLSSPVTKSFNRGEC | – | – | – | – | – | – | – | – | – | – | – | – | % Positive [3]: 99.7%; gMFI [3]: 95300 gMFI; % Positive [4]: 99.8%; gMFI [4]: 281000 gMFI; gMFI [5]: 16500 gMFI; gMFI [6]: 25800 gMFI; Jurkat WT/KO (Fold) [7]: 6.3 fold; Jurkat WT/KO (Fold) [8]: 8.7 fold |
| ABL-CD3-41 (antibody, V domains shown, Chimeric hybridoma mAb: human V, CH1, upper hinge; mouse middle hinge, CH2, CH3) VH: EVQLVESGGGLVKPGGSLRLSCAASGFTFSSYSMNWVRQAPGKGLEWVSSVNSRGSYIYYADSVKGRFTISRDNAKDSLYLQMNSLRADDTAVYYCARDRRELLLDYWGQGTLVTVSS VL: SYELTQPPSVSVSPGQTARITCSGDALPKKYAYWYQQKSGQAPVLVIYEDSKRPSGIPERFSGSSSGTMATLTISGAQVEDEADYYCYSTDSSGNHCWVFGGGTKLTVL | 295 nM | 0.1 | 0.25 s⁻¹ | 846000 M⁻¹ s⁻¹ | – | – | – | – | – | – | – | – | Kd [9]: 85 nM; Response [9]: 0.34; koff [9]: 0.0395 s⁻¹; kon [9]: 464000 M⁻¹ s⁻¹ |
| ABL-CD3-34 (antibody, V domains shown, Chimeric hybridoma mAb: human V, CH1, upper hinge; mouse middle hinge, CH2, CH3) VH: EVHLVESGGGLVKPGGSLRLSCAASGFTFSRYSMNWVRQAPGKGLEWVSSISRSSSYIYYADSVKGRFTISRDNAKNSLYLQMNSLRAEDTAVYYCAREPRTLGMDYWGQGILVTVSS VL: NFMLTQPHSVSESPGKTVTISCTRSSGSIASNYVQWYQQRPGSSPTTVIYEDNQRPSGVPDRFSGSIDSSSNSASLTISGLKTEDEADYYCQSYDSSNRVFGGGTKLTVL | – | – | – | – | 9.82 nM | 0.89 | 0.00196 s⁻¹ | 199000 M⁻¹ s⁻¹ | – | – | – | – | Kd [1]: 9.01 nM; Response [1]: 0.93; koff [1]: 0.00211 s⁻¹; kon [1]: 234000 M⁻¹ s⁻¹ |
| ABL-CD3-63 (antibody, V domains shown, Chimeric hybridoma mAb: human V, CH1, upper hinge; mouse middle hinge, CH2, CH3) VH: QVQLQESGPGLVKPSETLSLTCTVSGGSISSYYWSWIRQPAGKGLEWIGRIYTSGSTKYNPSLKSRVTMSVDTSKNQFSLKLISVTAADTAVYFCARERIRDLYFDYWGQGTLVTVSS VL: NFMLTQPHSVSESPGKTVTISCTRTSGSIASNYVQWYQQRPGSSPTTVIYEDNQRPSGVPDRFSGSIDSSSNSASLTISGLKTEDEAAYYCQSYDRSNRVFGGGTKLTVL | – | – | – | – | 90.4 nM | 0.34 | 0.0182 s⁻¹ | 202000 M⁻¹ s⁻¹ | 11.5 nM | 0.89 | 0.00145 s⁻¹ | 127000 M⁻¹ s⁻¹ | – |
| ABL-CD3-60 (antibody, V domains shown, Chimeric hybridoma mAb: human V, CH1, upper hinge; mouse middle hinge, CH2, CH3) VH: EVQLVESGGGLVKPGGSLRLSCAASGFTFSIYSMNWVRQAPGKGLEWVSSISSGSSYIYYADSVKGRFTISRDNAKSSLFLQMNSLRAEDTAVYYCAREKRELLFDYWGQGTLVTVSS VL: NFMLTQPHSVSESPGKTVTISCTRSSGSIASNYVQWYQQRPGSSPTTVIYEDNQRPSGVPDRFSGSIDRSSNSASLTISGLKTEDEADYYCQSYDSSNRVFGGGTKLTVL | – | – | – | – | 90.7 nM | 0.07 | 0.0583 s⁻¹ | 642000 M⁻¹ s⁻¹ | 231 nM | 0.1 | 0.0962 s⁻¹ | 417000 M⁻¹ s⁻¹ | – |
| ABL-CD3-46 (antibody, V domains shown, Chimeric hybridoma mAb: human V, CH1, upper hinge; mouse middle hinge, CH2, CH3) VH: EVQLVESGGGLVKPGGSLRLSCSASGFTFSTYTMNWVRQAPGKGLDWVSSISKSSTYIYYADSVKGRFTISRDNAKNSLYLQMNSLRAEDTAVYYCARERRTLAFDIWGQGTMVTVSS VL: NFMLTQPHSVSESPGKTVTISCTRSSGSIASNYVQWYQQRPGSSPTTVIYEDNQRPSGVPDRFSGSIDSSSNSASLTISGLKTEDEADYYCQCYDRSNRVFGGGTKLTVL | – | – | – | – | 16.3 nM | 0.88 | 0.00333 s⁻¹ | 204000 M⁻¹ s⁻¹ | 9.48 nM | 1.02 | 0.00171 s⁻¹ | 180000 M⁻¹ s⁻¹ | – |
| ABL-CD3-59 (antibody, V domains shown, Chimeric hybridoma mAb: human V, CH1, upper hinge; mouse middle hinge, CH2, CH3) VH: EVQLVESGGGLVKPGGSLRLSCTASGFTLSSYSMNWVRQAPGKGLEWVSSLSRSSNYIYYAVSVKGRFTISRDNAKNSLYLQMNSLRAEDTAVYYCARERWELLYFDYWGQGTLVTVSS VL: NFMLTQPHSVSESPGKTVTISCTRSSGSIASNYVQWYQQRPGSSPTTVIYEDNQRPSGVPDRFSGSIDSSSNSASLTISGLQTEDEADYYCQSYDNSIRVFGGGTKLTVL | 43.3 nM | 0.58 | 0.00487 s⁻¹ | 113000 M⁻¹ s⁻¹ | – | – | – | – | – | – | – | – | Kd [9]: 12.7 nM; Response [9]: 0.81; koff [9]: 0.00105 s⁻¹; kon [9]: 83100 M⁻¹ s⁻¹ |
| ABL-CD3-49 (antibody, V domains shown, Chimeric hybridoma mAb: human V, CH1, upper hinge; mouse middle hinge, CH2, CH3) VH: EVQLVESGGGLVKPGGSLRLSCSASGFTFSTYTMNWVRQAPGKGLEWVSSISKSSSYIYYTDSVKGRFTISRDNAKNSLYLQMNSLRAEDTAVYYCARERRTLAFDIWGQGTMVTVSS VL: NFMLTQPHSVSESPGKTVTISCTRSSGSIASNYVQWYQQRPGSSPTTVIYEDNQRSSGVPDRFSGSIDSSSNSASLTISGLKTEDEADYYCQCYDRSNRVFGGGTKLTVL | – | – | – | – | 11.4 nM | 0.82 | 0.00253 s⁻¹ | 223000 M⁻¹ s⁻¹ | 6.52 nM | 0.93 | 0.00131 s⁻¹ | 200000 M⁻¹ s⁻¹ | – |
| ABL-CD3-43 (antibody, V domains shown, Chimeric hybridoma mAb: human V, CH1, upper hinge; mouse middle hinge, CH2, CH3) VH: EVQLVQSGAEVKKPGESLKISCKGSEYSFTTYWIAWVRQMPGKGLEWMGIIYPGDSDTTYSPSFQGQVTISADKSISIAFLQWSSLKASDTAMYYCARQGELDAFDIWGQGTMVTVSS VL: QSALTQPASVSGSPGQSITISCTGTSSDVGSYNLVSWYQQHPGKAPKLMIYEDIRRPSGVSNRFSASKSGDTASLTISGLQAEDEADYYCCSYAGSTTFAIFGGGTKLTVL | – | – | – | – | 6.94 nM | 0.62 | 0.00104 s⁻¹ | 150000 M⁻¹ s⁻¹ | 6.2 nM | 0.62 | 0.000754 s⁻¹ | 122000 M⁻¹ s⁻¹ | – |
